Patent US20060026702A1 (DUKE UNIVERSITY, published 2006)

Target: T1, HA epitope-tagged PI3Kγ (pCMV-PI3 Kp110γ wild type) (Homo sapiens (Human), UniProt P48736 1-1102)
T1 construct: Full-length wild type with HA tag, expressed in transfected NIH-3T3 cells; also called HA-PI3Kγ
Experiment: co-immunoprecipitation from cytosolic extracts of transfected NIH-3T3 cells

T1 sequence (P48736 other isoform, or with tags, fused parts or gaps limits assumed): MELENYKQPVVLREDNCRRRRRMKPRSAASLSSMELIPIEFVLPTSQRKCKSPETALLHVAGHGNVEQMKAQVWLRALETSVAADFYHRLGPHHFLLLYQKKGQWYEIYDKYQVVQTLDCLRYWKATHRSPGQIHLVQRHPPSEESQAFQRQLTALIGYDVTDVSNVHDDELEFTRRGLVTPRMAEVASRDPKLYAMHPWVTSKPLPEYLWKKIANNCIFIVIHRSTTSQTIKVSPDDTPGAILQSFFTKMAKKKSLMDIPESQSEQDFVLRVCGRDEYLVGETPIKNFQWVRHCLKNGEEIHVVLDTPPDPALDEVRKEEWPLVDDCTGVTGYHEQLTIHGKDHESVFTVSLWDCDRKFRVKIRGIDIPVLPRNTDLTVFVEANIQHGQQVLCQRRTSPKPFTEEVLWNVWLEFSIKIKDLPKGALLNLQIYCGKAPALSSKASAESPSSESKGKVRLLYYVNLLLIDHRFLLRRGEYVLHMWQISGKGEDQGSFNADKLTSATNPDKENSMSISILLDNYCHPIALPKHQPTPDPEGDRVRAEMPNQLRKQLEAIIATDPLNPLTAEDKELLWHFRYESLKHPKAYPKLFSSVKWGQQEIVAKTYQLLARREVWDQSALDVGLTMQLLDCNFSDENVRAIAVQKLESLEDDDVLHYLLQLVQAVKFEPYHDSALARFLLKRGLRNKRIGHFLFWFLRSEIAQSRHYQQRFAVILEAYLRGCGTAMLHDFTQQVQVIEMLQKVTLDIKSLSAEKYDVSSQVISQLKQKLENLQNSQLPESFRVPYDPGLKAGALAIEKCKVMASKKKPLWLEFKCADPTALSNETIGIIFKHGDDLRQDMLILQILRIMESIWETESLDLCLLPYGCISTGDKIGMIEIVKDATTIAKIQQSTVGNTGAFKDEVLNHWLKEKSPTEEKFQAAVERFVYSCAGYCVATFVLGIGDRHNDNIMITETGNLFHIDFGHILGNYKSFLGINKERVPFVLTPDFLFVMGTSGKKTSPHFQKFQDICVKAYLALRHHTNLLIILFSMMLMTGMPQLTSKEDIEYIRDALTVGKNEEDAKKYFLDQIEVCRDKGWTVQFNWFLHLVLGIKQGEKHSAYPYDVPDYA

B1: β-adrenergic receptor kinase 1 (βARK1), bovine cDNA expressed in transfected cells (enzyme, UniProt P21146 1-689, looked up)
chain: MADLEAVLADVSYLMAMEKSKATPAARASKKILLPEPSIRSVMQKYLEDRGEVTFEKIFSQKLGYLLFRDFCLKHLEEAKPLVEFYEEIKKYEKLETEEERLVCSREIFDTYIMKELLACSHPFSKSAIEHVQGHLVKKQVPPDLFQPYIEEICQNLRGDVFQKFIESDKFTRFCQWKNVELNIHLTMNDFSVHRIIGRGGFGEVYGCRKADTGKMYAMKCLDKKRIKMKQGETLALNERIMLSLVSTGDCPFIVCMSYAFHTPDKLSFILDLMNGGDLHYHLSQHGVFSEADMRFYAAEIILGLEHMHNRFVVYRDLKPANILLDEHGHVRISDLGLACDFSKKKPHASVGTHGYMAPEVLQKGVAYDSSADWFSLGCMLFKLLRGHSPFRQHKTKDKHEIDRMTLTMAVELPDSFSPELRSLLEGLLQRDVNRRLGCLGRGAQEVKESPFFRSLDWQMVFLQKYPPPLIPPRGEVNAADAFDIGSFDEEDTKGIKLLDSDQELYRNFPLTISERWQQEVAETVFDTINAETDRLEARKKTKNKQLGHEEDYALGKDCIMHGYMSKMGNPFLTQWQRRYFYLFPNRLEWRGEGEAPQSLLTMEEIQSVEETQIKERKCLLLKIRGGKQFVLQCDSDPELVQWKKELRDAYREAQQLVQRVPKMKNKPRSPVVELSKVPLIQRGSANGL
notes: Over-expressed in NIH-3T3 or HEK 293 cells and immunoprecipitated with a βARK1 monoclonal antibody; also called GRK2; β3ARK1
  binding result: binds
